Assay results as given in patent US8470576B2, “Group of novel enantioselective microbial nitrile hydratases with broad substrate specificity” (B.R.A.I.N. AG, priority 2006, dated 2013).
Positions count from the first letter of the chain named.

How the values were obtained:
[1] = Dependence of NHase activity on the temperature; assay type: biochemical; conditions: for optimal temperature: 1 mM PPN
Experimental: As enzyme samples cell free crude extracts were used either of the heterologously or homologously produced enzyme. The substrate (1 mM 2-phenylpropionitrile (PPN) in 50 mM Tris/HCl pH 7.5)) was equilibrated at the indicated temperatures before the reaction was started by addition of 50 μl of enzyme sample. The activity was determined as described in example 4.
As enzyme samples lyophilized cells or a cell free crude extract were used. The samples were equilibrated for 5 min at the indicated temperatures before the reaction was started by addition of PPN to a final concentration of 1 mM. The activity was determined as described in example 4.
If not otherwise indicated enzyme samples were prepared as follows: the cells from 1 ml of the culture were washed with 50 mM Tris/HCl pH 7.5 and resuspended in 750 μl of the same buffer. This suspension was incubated at 30° C. in a thermomixer at 1000 rpm. The biotransformation was started by addition of the substrate 2-phenylpropionitrile (PPN) in 50 mM Tris/HCl pH 7.5. The concentration of the substrate was 1 mM, if not otherwise stated. The reaction was stopped after 1 min, 5 min or 10 min as indicated by addition of 1 M HCl. Cells were removed by centrifugation and the supernatant analysed by HPLC for the presence of the corresponding amide. The HPLC analysis was carried out on a system comprising a Surveyor 4 channel Pump, AutoSampler and UVNIS detector at 210 nm from Thermo Finnigan on a Grom-Sil 1200DS-3 cp 3 μm (125×4.6 mm) reverse phase column. As mobile phase, acetonitrile and 0.3% H3PO4 were used in a ratio of 50:50 at a flow of 0.7 ml/min, respectively.
The optimal temperatures for the NHases according to Seq ID No. 2 and 4 (Raoultella terrigena, 77.1) and Seq ID. No. 18 and 20 (Klebsiella oxytoca, 38.1.2) were determined to be at 45° C. (FIG. 23 and FIG. 24). At 55° C. a residual activity of about 20% was found for the enzyme according to Seq ID-No. 18 and 20 whereas at 60° C. no activity could be determined.

[2] = Enantioselectivity of NHases towards rac-2-phenylpropionitrile (washed cells, chiral HPLC); assay type: biochemical; conditions: for E-value: kinetic resolution of rac-2-phenylpropionitrile; for enantiopreference: rac-2-phenylpropionitrile
Experimental: For the determination of enantioselectivity towards rac-mandelonitrile and 2-phenylpropionitrile 40-50 mg of washed cells were resuspended in 1 ml of 50 mM Tris/HCl pH 7.5. 100 μl of cell suspension were mixed with 800 μl 50 mM Tris/HCl pH 7.5 and incubated at 30° C. in a thermomixer at 1000 rpm. The biotransformation was started by addition of 100 μl of 10 mM rac-mandelonitrile or rac-2-phenylpropionitrile in 50 mM Tris/HCl pH 7.5. The reaction was stopped by addition of 100 μl 1M HCl after 1, 5 or 10 min. Cells were removed by centrifugation and the supernatant analysed by chiral HPLC for the presence of mandeloamide and phenylpropionamide, respectively. rac-Mandeloamide was analysed on a HPLC comprising a Surveyor 4 channel Pump, AutoSampler and UVNIS detector at 210 nm from Thermo Finnigan on a Nucleodex β-OH column (Macherey & Nagel) using 50% methanol/water:water (40:60) as mobile phase at a flow rate of 0.7 ml/min. The apparent enantiomeric ratio (Eapp) of the conversion of mandelonitrile was calculated according to Straathof and Jongejan for asymmetric catalysis (see example 9). In case of 2-phenylpropionamide, the samples were lyophilized and resuspended in n-hexane: 2-propanol (80:20). Prior to injection, the samples were additionally dried with sodium sulfate and were centrifugated at 16,000 g for 5 min. The supernatants were analyzed using a Chiracel OD column (Daicel) on a Spectra System (AS3000, P2000, UV2000 at 210 nm) from Thermo Separation Products with n-hexane: 2-propanol (80:20) as mobile phase at a flow rate of 0.5 ml/min. The enantiomeric ratio (E) of the conversion of PPN was calculated according to Chen et al.

[3] = Determination of the isoelectric point (Phast-System); assay type: physicochemical; conditions: purified enzyme
Experimental: The IEP of the purified enzyme according to Seq. ID No. 2 and 4 was determined to be 3.5-3.6 using the Phast-System (Amersham Pharmacia).

B1: NHase Seq ID No. 2 and 4: nitrile hydratase of Raoultella terrigena strain 77.1, α-subunit SEQ ID NO 2, β-subunit SEQ ID NO 4 (protein)
alpha: MSHKHDHDHTEPPVDIELRVRALESLLQEKGLIDPAALDELIDTYEHKVGPRNGAQVVARAWSDPEYKRRLMENATAAISELGFSGIQGEDMLVVENTPDVHNVTVCTLCSCYPWPVLGLPPVWYKSAPYRSRIVIDPRGVLAEFGLHIPESKEIRVWDSSAELRYLVLPERPAGTDGWSEAQLSELISRDSMIGTGVVTAP
beta: MNGIHDLGGMHGFGPIPTEENEPYFHHEWERRVFPMFASLFVGVHFNVDEFRHSIECMPPADYLQSSYYEHWLHAFETLLLAKGVITVDELWGGAKPTLCKPGTPVLTQDMVSMVVSTGGSARVSHDVAPRFRVGDRVRTKNFNPTTHTRLPRYARDKVGRIEIAHGVFITPDTAAHGLGEHPQHVYSVSFTAQELWGEPRPDNVFIDLWDDYLEEA
modifications: Raoultella terrigena, strain 77.1
- optimal temperature [1]: 45 °C
- residual activity at 60° C. [1]: 60-79%
- E-value [2]: 47
- enantiopreference [2]: (S)
- IEP [3]: 3.5-3.6

B2: NHase Seq ID No. 18 and 20: nitrile hydratase of Klebsiella oxytoca strain 38.1.2, α-subunit SEQ ID NO 18, β-subunit SEQ ID NO 20 (protein)
alpha: B1 alpha with E11Q, S80A, S152N, D177E, S189T
beta: MNGIHDLGGMHGLGPIPTEENEPYFHHEWERRVFPLFASLFVGGHFNVDEFRHAIERMAPTEYLQSSYYEHWLHAFETLLLAKGVITVEELWGGAKPAPCKPGTPVLTQEMVSMVVSTGGSARVSHDVAPRFRVGDWVRTKNFNPTTHTRLPRYARDKVGRIEIAHGVFITPDTAAHGLGEHPQHVYSVSFTAQALWGEPRPDKVFIDLWDDYLEEA
modifications: Klebsiella oxytoca, strain 38.1.2
- optimal temperature [1]: 45 °C
- residual activity at 55° C. ([1]; 55° C.): about 20%
- residual activity at 60° C. [1]: no activity
- E-value [2]: 35
- enantiopreference [2]: (S)
